From patent publication US20250213694A1 (SHANGHAI SIMNOVA BIOTECHNOLOGY, published 2025)

B1: GPRC5D-mab03 (antibody, V domains shown)
VH: QAYLQQSGAELVRPGASVKMSCKASGYTFTSYNMNWVKQTPRQGLEWIGAIYPGNGDTSYNQKFKGKATLTVDKSSSTAYMQLSSLTSEDSAVYFCARVRLRYAMDYWGQGTSVTVSS
VL: DIVMTQSQKFMSTTVGDRVTITCKASQNVGTAVAWYQQKPGQSPKLLISSASNRYTGVPERFTGSGSGTDFTLTIRNMQSEDLADYFCQQYSSYPWTFGGGTELEIK
notes: Murine variable regions; Screened as a chimeric antibody containing the constant region of human IgG1
B2: GPRC5D-mab06 (antibody, V domains shown)
VH: QVQLKQSGPGLVQPSQSLSITCTVSGFSLTSYGVNWIRQSPGKGLEWLGVIWSGGNTDYNAAFRSRLSISKDNSKSQVFFKMNSLQADDTAIYYCARGQLGRPYWYFDVWGTGTSVTVSS
VL: DIVMTQSHKFMSTSVGDRVSITCKASQDVRTAVAWYQQKPGQSPKLLIYWASTRHTGVPDRFTGSRSGTDYTLTISSVQAEDLALYYCQQHYSTPLTFGAGTKLELK
notes: as for B1

Biological target: T1, human GPRC5D on GPRC5D-overexpressing cells (human, UniProt Q9NZD1 1-345)
T1 construct: whole, on cells; also called also tested on NCI-H929 cells
Experiment: cell-based ELISA and FACS on human GPRC5D-overexpressing cells and NCI-H929 cells; chimeric human IgG1 format

T1 sequence (Q9NZD1 whole entry): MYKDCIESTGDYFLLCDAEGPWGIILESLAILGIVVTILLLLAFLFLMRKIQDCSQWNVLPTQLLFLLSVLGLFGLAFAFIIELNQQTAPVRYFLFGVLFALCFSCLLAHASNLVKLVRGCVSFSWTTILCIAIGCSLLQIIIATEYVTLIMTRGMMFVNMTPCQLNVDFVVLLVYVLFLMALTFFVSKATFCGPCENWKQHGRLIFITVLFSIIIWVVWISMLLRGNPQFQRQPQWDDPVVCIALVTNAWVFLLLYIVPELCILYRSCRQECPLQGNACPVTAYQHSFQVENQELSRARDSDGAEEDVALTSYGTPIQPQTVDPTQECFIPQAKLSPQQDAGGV

Binder | binding result
B1 | binds
B2 | binds
